1 protein from article PMC10864366, “Aggresome formation promotes ASK1/JNK signaling activation and stemness maintenance in ovarian cancer” (Nature Communications, 2024) can be followed below.

The series concerns the molecule itself. Put plainly: gel-shift assay (SDS-PAGE of heated and unheated protein, Coomassie stain); purified OTUD1 WT and Δ105–164 protein; heated (100 °C) and unheated samples separated by SDS-PAGE.

B1: purified OTUD1 protein (WT), pET28a-mEGFP-OTUD1 (natural protein, UniProt Q5VV17 1-481, looked up)
chain: MQLYSSVCTHYPAGAPGPTAAAPAPPAAATPFKVSLQPPGAAGAAPEPETGECQPAAAAEHREAAAVPAAKMPAFSSCFEVVSGAAAPASAAAGPPGASCKPPLPPHYTSTAQITVRALGADRLLLHGPDPVPGAAGSAAAPRGRCLLLAPAPAAPVPPRRGSSAWLLEELLRPDCPEPAGLDATREGPDRNFRLSEHRQALAAAKHRGPAATPGSPDPGPGPWGEEHLAERGPRGWERGGDRCDAPGGDAARRPDPEAEAPPAGSIEAAPSSAAEPVIVSRSDPRDEKLALYLAEVEKQDKYLRQRNKYRFHIIPDGNCLYRAVSKTVYGDQSLHRELREQTVHYIADHLDHFSPLIEGDVGEFIIAAAQDGAWAGYPELLAMGQMLNVNIHLTTGGRLESPTVSTMIHYLGPEDSLRPSIWLSWLSNGHYDAVFDHSYPNPEYDNWCKQTQVQRKRDEELAKSMAISLSKMYIEQNACS
notes: OTUD1, wild type; also called purified native WT OTUD1 protein; source: pET28a-mEGFP-OTUD1 construct, purified
For the protein B1, the binding result is recorded as “binds”.
